Positions count from the first letter of the chain named.

The target of assay [1] is CAIX coated on a CM5 chip (Example 2) (human, UniProt Q16790 38-414). Nature of the assay: SPR (BIAcore X100), CAIX coated CM5 chip, scFv injected as serial dilutions. The procedure:
Affinity measurements were performed by surface plasmon resonance using BIAcore X100 instrument using a CAIX coated CM5 chip. The XE114 antibody without glycosylation motif in scFv format was injected as serial-dilutions, in a concentration range from […] to 15.7 nM. Regeneration of the chip was performed by HCl 10 mM.
The BIAcore analysis confirmed that the XE114 antibody without glycosylation motif in scFv format was capable of binding to CAIX.
In general terms: SPR reads the build-up and loss of mass on a sensor chip optically.

Assay [2] addresses recombinant His-tagged CAIX (amino acids 120-397 of the full-length protein; SEQ ID NO: 15) (human, UniProt Q16790 120-397). Nature of the assay: SPR (Biacore 3000), His-tagged CAIX on CM5 chip, monomeric scFv injected at 660 nM. The procedure:
Affinity measurements were performed on a Biacore 3000 instrument. 2100 RU recombinant His-tagged CAIX (SEQ ID NO: 15) were immobilized onto a CM5 chip. Peaks representing the monomeric fractions of the scFv were collected by size-exclusion chromatography on a Superdex 75 HR 10/30 column. The monomeric fraction was injected at a flow rate of 10 μl min⁻¹ over the antigen-coated chip at […] different concentrations, 660 nM, 160 nM and 80 nM. All kinetic data were evaluated using the BIAevaluation 4.1 software.

Assay [3] concerns the target carbonic anhydrase IX (CAIX) as expressed on SKRC52 human renal cell carcinoma cells, SKRC52 tumour sections … (human, UniProt Q16790 38-459). Nature of the assay: immunofluorescence on frozen human stomach sections, FITC-labelled hIgG1 at 2 ug/ml. The procedure: Frozen sections of healthy human stomach tissue were stained as follows. Briefly, FITC-labeled antibody XE114 in human IgG1 (hIgG1) format was added at a final concentration of 2 μg/ml to acetone-fixed sections.
Counterstaining for cell nuclei was performed with DAPI. Tissue sections were mounted with fluorescent mounting medium and analysed using an Axioskop2 microscope with a 10× objective.

B1: XE114 antibody without glycosylation motif in scFv format (scFv)
scFv: EVQLLESGGGLVQPGGSLRLSCAASGFTFSSYAMSWVRQAPGKGLEWVSAIDGSGGSTYYADSVKGRFTISRDNSKNTLYLQMNSLRAEDTAVYYCVKGPPVFDYWGQGTLVTVSSGGGGSGGGGSGGGGSSELTQDPAVSVALGQTVRITCQGDSLRSYYASWYQQKPGQAPVLVIYGKNNRPSGIPDRFSGSSSGNTASLTITGAQAEDEADYYCQSSKWSWDPVVFGGGTKLTVLG
notes: Expressed in CHO-S cells; also called XE114 w/o glycosylation motif
On to B1, for which, in assay [1], the Kd (as a rule, the constant that tells how readily two partners part at equilibrium) is 2.71 nM and the koff (in general, the rate constant with which the complex falls apart) worked out at 0.000305 s⁻¹.

B2: anti-CAIX XE114 scFv antibody (with the glycosylation motif) (scFv)
scFv: B1 scFv with Q218N
notes: also called scFv XE114; XE114 single chain Fv
For the molecule B2, the Kd in assay [2] worked out at 15 nM.

B3: XE114 antibody (with the glycosylation motif) in human IgG1 (hIgG1) format (antibody, V domains shown)
VH: EVQLLESGGGLVQPGGSLRLSCAASGFTFSSYAMSWVRQAPGKGLEWVSAIDGSGGSTYYADSVKGRFTISRDNSKNTLYLQMNSLRAEDTAVYYCVKGPPVFDYWGQGTLVTVSS
VL: SSELTQDPAVSVALGQTVRITCQGDSLRSYYASWYQQKPGQAPVLVIYGKNNRPSGIPDRFSGSSSGNTASLTITGAQAEDEADYYCNSSKWSWDPVVFGGGTKLTVLG
modifications: FITC-labelled (site and chain not stated)
notes: also called FITC-labeled antibody XE114; XE114 in IgG format
On to B3, for which, in assay [3], the binding result was “binds”.

The values above are taken from patent US20210054095A1 (PHILOGEN S P A, published 2021).
